One block for each molecule: values may come before it.
Columns and labels:
[1] = molecular target: Hermes79-612 C519S (Musca domestica); assay: crystal structure
[2] = molecular target: HermesΔ497-516 (Musca domestica)
[3] = molecular target: full-length Hermes expressed in Sf9 cells (Musca domestica); assay: SEC
[4] = molecular target: full-length Hermes expressed in budding yeast (Musca domestica); assay: SEC
SEC = molecular target: the molecule itself; assay: SEC

stoichiometry N [1]: 8
Molecule: Hermes79-612 C519S (domain or fragment)

stoichiometry N [2]: 2
Molecule: HermesΔ497-516 (enzyme)

stoichiometry N [3]: 8
Molecule: full-length Hermes expressed in Sf9 cells (enzyme)

stoichiometry N [4]: 8
Molecule: full-length Hermes expressed in budding yeast (enzyme)

B1: full-length Hermes transposase (E. coli-expressed) (enzyme, Musca domestica, UniProt Q25438 1-612, looked up)
chain: MQKMDNLEVKAKINQGLYKITPRHKGTSFIWNVLADIQKEDDTLVEGWVFCRKCEKVLKYTTRQTSNLCRHKCCASLKQSRELKTVSADCKKEAIEKCAQWVVRDCRPFSAVSGSGFIDMIKFFIKVKAEYGEHVNVEELLPSPITLSRKVTSDAKEKKALISREIKSAVEKDGASATIDLWTDNYIKRNFLGVTLHYHENNELRDLILGLKSLDFERSTAENIYKKLKAIFSQFNVEDLSSIKFVTDRGANVVKSLANNIRINCSSHLLSNVLENSFEETPELNMPILACKNIVKYFKKANLQHRLRSSLKSECPTRWNSTYTMLRSILDNWESVIQILSEAGETQRIVHINKSIIQTMVNILDGFERIFKELQTCSSPSLCFVVPSILKVKEICSPDVGDVADIAKLKVNIIKNVRIIWEENLSIWHYTAFFFYPPALHMQQEKVAQIKEFCLSKMEDLELINRMSSFNELSATQLNQSDSNSHNSIDLTSHSKDISTTSFFFPQLTQNNSREPPVCPSDEFEFYRKEIVILSEDFKVMEWWNLNSKKYPKLSKLALSLLSIPASSAASERTFSLAGNIITEKRNRIGQQTVDSLLFLNSFYKNFCKLDI
stoichiometry N (SEC): 8

Source: paper PMC4105704 (Cell, 2014)
